Substrate in this series: O=P(O)(O)OC[C@H](O)CO
Put plainly: purified protein. The series is classed as biochemical, Glycine max. Conditions: 0.1 M phosphate buffer pH 7.2, acyl-CoA co-substrate not named, methods text mentions membrane protein, conclusions print 36.5 mmol L^-1.

What is called Km is the concentration of substrate that gives half-maximal velocity.

B1: GmGPAT1 (Glycine max) (protein)
chain: MSTTGSSAYHCVAHLPNNKTMFMLSTPPTTTFFATPRVLPFLSSKLSSSSSSSTASSSPCCSSITPKVKSKDNNNCYLVSAKHSPANMSASVSSRTFLNARNEQELLAGIRKEVEAGSLPANVAAGMEEVYNNYKSAVIQSGDPKSKEIVLSNMIALLDRIFLDVTDPFVFQPHHKAKREPFDYYVFGQNYIRPLVDFKNSYVGNMPLFIEMEEKLKQGHNIILMSNHQTEADPAIIALLLETRLPYIAENMTYVAGDRVITDPLSKPFSIGRNLICVYSKKHMLDDPALVEMKRNANIRALKEMAMLLRSGSQIVWIAPSGGRDRPDPHTGEWAPAPFDTSSVDNMRRLVEHSGPPGHVYPLAILCHDIMPPPLKVEKEIGEKRIISFHGTGISVAPALSFSETTATSENPEKAKEVFTKALYDSVTEQYNVLKSAIHGKKGFEASTPVVSLSQSWK
In the case of B1, the Michaelis constant (Km) is 36.47 mM.
